Reference: patent publication US20090130114A1 (Amgen, published 2009)

T1: human WISE (human, UniProt Q6X4U4 24-206)
T1 construct: Recombinant, made in E. coli or mammalian cells; biotinylated in the ELISAs, amine-coupled to CM5 in Biacore; also called huWise; huWISE
T1 sequence: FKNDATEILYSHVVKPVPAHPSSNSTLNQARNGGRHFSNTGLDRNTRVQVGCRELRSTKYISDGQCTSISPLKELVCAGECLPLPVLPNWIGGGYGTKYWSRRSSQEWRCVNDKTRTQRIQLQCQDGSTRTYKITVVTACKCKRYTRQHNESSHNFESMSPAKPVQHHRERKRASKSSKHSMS

B1: Ab-1 (antibody, human IgG2, lambda, V domains shown)
VH: QVQLVQSGAEVKKPGSSVKVSCKASGGTFSSTYISWVRQAPGQGLEWMGWIYAGTGGTRYNRKFTGRVTITADESTSTAYMELSSLRSEDTAVYYCAREGVDGWFTYWGQGTLVTVSS
VL: QSVVTQPPSVSGAPGQRVTMSCTGSSSNLGAGYDVNWYQQLPGKAPKVLIYGNEIRPSGVPDRFSGSKSDTSATLDITGLQTGDEADYYCETWDSSLSTVVFGGGTKLTVLG
notes: Phage-derived human light chain with the humanized Ab-C IgG2 heavy chain, transiently expressed in 293 6E cells
B2: Ab-48 (antibody, human IgG2, kappa, V domains shown)
VH: QVQLVQSGAEVKKPGSSVKVSCKASGGTFSSTYISWVRQAPGQGLEWMGWIYAGTGGTRYNRKFTGRVTITADESTSTAYMELSSLRSEDTAVYYCAREGVDGWFTYWGQGTLVTVSS
VL: DIQMTQSPSSLSASIGDRVTITCQASQDINNYLNWYQQKQGKAPKVLIFDASNLAAGVPSRFSGSGSGTDFTLTISSLQPEDIATYYCQQYDNLPLTFGQGTKVDNKR
notes: Phage-derived human light chain with the humanized Ab-C IgG2 heavy chain
B3: Ab-29 (antibody, human IgG2, kappa, V domains shown)
VH: QVQLVQSGAEVKKPGSSVKVSCKASGGTFSSTYISWVRQAPGQGLEWMGWIYAGTGGTRYNRKFTGRVTITADESTSTAYMELSSLRSEDTAVYYCAREGVDGWFTYWGQGTLVTVSS
VL: DIQMTQSPLSLSASVGDRVAITCRASQSISDSLNWYQQKPGKPPKIVIYAASGLPSGVPSRFSGGGSGTDFTLVISTLQPEDFATYYCQQSYSAPLTFGGGTKVEISR
notes: as for B2
B4: Ab-13 (antibody, human IgG2, kappa, V domains shown)
VH: QVQLVQSGAEVKKPGSSVKVSCKASGGTFSSTYISWVRQAPGQGLEWMGWIYAGTGGTRYNRKFTGRVTITADESTSTAYMELSSLRSEDTAVYYCAREGVDGWFTYWGQGTLVTVSS
VL: DIQMTQSPSSLSASVGDRVTITCRASQSISEYLNWYQQKPGQAPRLLIYGVSTRATGIAARFSGSGSGTDFTLTISSLQPEDSAVYYCQQDYNVPYTFGQGTKLEIKR
notes: as for B2
B5: Ab-24 (antibody, human IgG2, kappa, V domains shown)
VH: QVQLVQSGAEVKKPGSSVKVSCKASGGTFSSTYISWVRQAPGQGLEWMGWIYAGTGGTRYNRKFTGRVTITADESTSTAYMELSSLRSEDTAVYYCAREGVDGWFTYWGQGTLVTVSS
VL: ETTLTQSPALLSLSPGERATLSCRASQTLSFDFFAWYQQKPGQAPSLLISGISTRAAGVPDRFSGSGSGTDFTLTIDRLEPEDFAVYFCQQSSSLPLTFGGGTKVEIRR
notes: as for B2
B6: Ab-63 (antibody, human IgG2, lambda, V domains shown)
VH: QVQLVQSGAEVKKPGSSVKVSCKASGGTFSSTYISWVRQAPGQGLEWMGWIYAGTGGTRYNRKFTGRVTITADESTSTAYMELSSLRSEDTAVYYCAREGVDGWFTYWGQGTLVTVSS
VL: QSALTQTPSVSGTPGQRVTISCTGSRSNIGAGYDVQWYQQFPGTAPRLLIYANNIRSSGVPDRFSGSKSGTSASLAITGLQAEDEATYYCQSYDRSLSGYVFGTGTEVTVVG
notes: as for B2
B7: Ab-23 (antibody, human IgG2, kappa, V domains shown)
VH: QVQLVQSGAEVKKPGSSVKVSCKASGGTFSSTYISWVRQAPGQGLEWMGWIYAGTGGTRYNRKFTGRVTITADESTSTAYMELSSLRSEDTAVYYCAREGVDGWFTYWGQGTLVTVSS
VL: DIQMTQSPGTLSLSPGERATLFCRASQRVSSSYLAWYQQRPGQAPRLLMYGTSSWATGIPDRFSGSGSGTDFTLTISSLQPEDFATYYCQQSSSIPYTFGQGTKLEIKR
notes: as for B2
B8: Ab-66 (antibody, human IgG2, lambda, V domains shown)
V domain 1: QSVVTQPPSVSGAPGQRVTISCTGSSSNIGAGYDVHWYQQLPGAAPKVLIFGNNNRPSGIPDRVSGSKSGTSASLAISGLQTEDEAVYYCQSYDSSLSAYVFGGGTQVTVLG
V domain 2: QVQLVQSGAEVKKPGSSVKVSCKASGGTFSSTYISWVRQAPGQGLEWMGWIYAGTGGTRYNRKFTGRVTITADESTSTAYMELSSLRSEDTAVYYCAREGVDGWFTYWGQGTLVTVSS
notes: as for B2
B9: Ab-16 (antibody, human IgG2, kappa, V domains shown)
VH: QVQLVQSGAEVKKPGSSVKVSCKASGGTFSSTYISWVRQAPGQGLEWMGWIYAGTGGTRYNRKFTGRVTITADESTSTAYMELSSLRSEDTAVYYCAREGVDGWFTYWGQGTLVTVSS
VL: DIQLTQSPFSLSASVGDRVTITCRASQSINDNLNWYLQKPGKAPKLLIFAASTSQSGVPSRFSGNGFGTDFSLIISGLQPEDVGTYYCQQNDSMPFTFGQGTRLDIKR
notes: as for B2
B10: light chain of SEQ ID NO: 104 paired with the heavy chain of SEQ ID NO: 24 (antibody, human IgG2, lambda, V domains shown)
VH: QVQLVQSGAEVKKPGSSVKVSCKASGGTFSSTYISWVRQAPGQGLEWMGWIYAGTGGTRYNRKFTGRVTITADESTSTAYMELSSLRSEDTAVYYCAREGVDGWFTYWGQGTLVTVSS
VL: NFMLTQPHSVSESPGKTVTISCTRNSGSIASNYVQWYQQRPGSSPATVIYEDNQRPSGVPDRFSGSIDISSNSASLTISGLKTEDEADYYCQSYDSSNPFYVFGTGTKVTVLG
notes: as for B2
B11: Ab-28 (antibody, human IgG2, kappa, V domains shown)
VH: QVQLVQSGAEVKKPGSSVKVSCKASGGTFSSTYISWVRQAPGQGLEWMGWIYAGTGGTRYNRKFTGRVTITADESTSTAYMELSSLRSEDTAVYYCAREGVDGWFTYWGQGTLVTVSS
VL: DIQMTQSPSSLSASVGDRVTITCRASQSISDYLNWYQQRPGKAPNLLIFASNTLQGGVPSRFRGSGSGTDFTLTINSLQHEDFGTYYCQQSYRTPLTFGGGTKVEIKR
notes: as for B2
B12: Ab-18 (antibody, human IgG2, kappa, V domains shown)
VH: QVQLVQSGAEVKKPGSSVKVSCKASGGTFSSTYISWVRQAPGQGLEWMGWIYAGTGGTRYNRKFTGRVTITADESTSTAYMELSSLRSEDTAVYYCAREGVDGWFTYWGQGTLVTVSS
VL: DIQLTQSPSSLSASVGDRVTITCQASQDINNYLSWYQQKPGKAPKVLIYDTSNLETGVPSRFSGSGSGTDFTFTISSLQPEDIATYYCQQSDNLPYTFGQGTKLEIKR
notes: as for B2
B13: Ab-60 (antibody, human IgG2, lambda, V domains shown)
VH: QVQLVQSGAEVKKPGSSVKVSCKASGGTFSSTYISWVRQAPGQGLEWMGWIYAGTGGTRYNRKFTGRVTITADESTSTAYMELSSLRSEDTAVYYCAREGVDGWFTYWGQGTLVTVSS
VL: QSVVTQPPAVSGAPGQRITISCTGSSSNIGAGYDVHWYQQFPGTAPKVLIFANDYRPSGVPDRFSASKSATSASLAIRGLQSEDEADYYCQSYDNRLSGYVFGTGTKVTVLG
notes: as for B2
B14: Ab-65 (antibody, human IgG2, lambda, V domains shown)
VH: QVQLVQSGAEVKKPGSSVKVSCKASGGTFSSTYISWVRQAPGQGLEWMGWIYAGTGGTRYNRKFTGRVTITADESTSTAYMELSSLRSEDTAVYYCAREGVDGWFTYWGQGTLVTVSS
VL: QSVLTQPPSVSGAPGQRVTISCTGSSSNIGAGYDVHWYQQLPRTAPKLLIYGDTNRPSGVPDRFSGSKSGTSASLAITGLQTEDEADYYCQSYDSSLRAYVFGTGTKVTVLG
notes: as for B2
B15: Ab-62 (antibody, human IgG2, lambda, V domains shown)
VH: QVQLVQSGAEVKKPGSSVKVSCKASGGTFSSTYISWVRQAPGQGLEWMGWIYAGTGGTRYNRKFTGRVTITADESTSTAYMELSSLRSEDTAVYYCAREGVDGWFTYWGQGTLVTVSS
VL: QAVLTQPSSVSGAPGRRVTISCTGSSSNIGAGYDVHWYQQLPGKAPKLVISANTNRPSGVPDRFSGSKSGTSASLAITGLQAEDEADYYCQSYDNSVSAYVFGTGTKVTVLG
notes: as for B2

Each binder was assayed against T1, human WISE (assay: assay not specified (IgG2 from transient transfection)).

Question: Does B1 bind?
Answer: binds

Question: Does B2 bind?
Answer: binds

Question: Does B3 bind?
Answer: binds

Question: Does B4 bind?
Answer: binds

Question: Does B5 bind?
Answer: binds

Question: Does B6 bind?
Answer: binds

Question: Does B7 bind?
Answer: binds

Question: Does B8 bind?
Answer: binds

Question: Does B9 bind?
Answer: binds

Question: Does B10 bind?
Answer: binds

Question: Does B11 bind?
Answer: binds

Question: Does B12 bind?
Answer: binds

Question: Does B13 bind?
Answer: binds

Question: Does B14 bind?
Answer: binds

Question: Does B15 bind?
Answer: binds
